The text below walks through data of publication PMC6173795, “The FapF Amyloid Secretion Transporter Possesses an Atypical Asymmetric Coiled Coil” (Journal of Molecular Biology, 2018).

Data set [1] concerns the molecule itself. Put plainly: crystal structure; synthetic peptide at 10 mg/ml; 0.2 M zinc acetate dihydrate, 0.1 M sodium cacodylate pH 6.5, 10% v/v 2-propanol; data processed in P1, six chains in the asymmetric unit.
Data set [2] concerns the molecule itself. Put plainly: SEC-MALS; Superdex 75 10/300 GL, phosphate buffer (20 mM PO4, 150 mM NaCl, pH 6.8), 100 ul FapF3-40 samples at 1 mg/ml, 0.25 ml/min; size exclusion profiles of wild type, R33A and R33E. For orientation: Size exclusion chromatography separates by hydrodynamic size, large species first.

B1: FapFCC synthetic peptide (predicted coiled-coil region of FapF, residues 3-40) (peptide)
chain: DVDIETLKQELLELKQRYEAQQKALAVLEQRVRQVEDQ
notes: FapF amyloid secretion transporter of Pseudomonas, coiled-coil region, residues 3-40; Parallel trimer; six chains (two trimers) in the asymmetric unit of the crystal; also called FapFCC peptide; periplasmic domain of FapF; source: synthetic peptide (ChinaPeptides, 97.5% purity)
B1: in data set [1], the stoichiometry N (commonly the number of molecules, sites or subunits per partner or assembly) worked out at 3.

B2: recombinant FapF3-40 (FapFCC), wild type (domain or fragment, Pseudomonas UK4)
chain: DVDIETLKQELLELKQRYEAQQKALAVLEQRVRQVEDQ
notes: Cloned into pNIC28-Bsa4 (vector: Addgene plasmid no. 26103); also called recombinant FapFCC; not shown: His6, N-terminal, cleaved
For the protein B2, the “stoichiometry N” value in data set [2] came to 3.
